Laboratory results from patent US20010041790A1.

Legend:
murine PrPsen (mouse) = murine PrPsen (mouse) (UniProt P04925); experiment: cell-based or functional assay
[1] = target: 35S-labeled hamster PrPsen, glycophosphoinositol-negative form (35S-HaPrPsen) (Syrian golden hamster) (UniProt P04273); experiment: cell-based or functional assay

Substance	IC50 of the conversion reaction [1] [µM]	also measured
Mo3F4P109-141 (peptide)	–	IC50 of murine PrP conversion (murine PrPsen (mouse)): 50 µM
MoP109-141 (peptide)	–	IC50 of the hamster PrP conversion reaction [1]: 70 µM; IC50 of murine PrP conversion (murine PrPsen (mouse)): 50 µM
hamster PrP synthetic peptide P113-141	–	IC50 of the in vitro conversion [1]: 40 µM
hamster PrP synthetic peptide P115-141	40	–
hamster PrP synthetic peptide P117-141	80	–
hamster PrP synthetic peptide P119-128	550	–
hamster PrP synthetic peptide P119-136	< 100	–
hamster PrP synthetic peptide P119-141	120	–
